Assays:
[1] = target: T1, HNE-stabilized human α-synuclein protofibrils (human, UniProt P37840 1-140); assay: competition ELISA
[2] = target: ONE-stabilized human α-synuclein protofibrils (human, UniProt P37840 1-140); assay: competition ELISA
[3] = target: α-synuclein monomers (human, UniProt P37840 1-140); assay: competition ELISA, antigen in solution against plate coated with protofibrils
Description: (§1) Specifically, a high-binding ELISA microtiter plate was coated with 100 μl/well of 1 μg/ml of α-synuclein protofibril, diluted in 1×PBS, sealed with adhesive sealer and incubated overnight at +4° C. Then, the coating solution was discarded and the residual binding capacity of the plate was blocked by adding 200 μl/well of PBS-Tween 20 (0.05%). The sealed plate was incubated for 60 min at room temperature (R.T.) by shaking at 900 rpm.
(§2) Meanwhile, peptide solution was prepared in 1×PBS-Tween 20 (0.05%) by diluting α-synuclein monomers or protofibril to a concentration of 140 nM. A 10-step 3× dilution series of α-synuclein monomers and protofibrils was performed in a volume of 50 μl in a round bottomed, low protein binding microtiter plate. To this solution, 50 μl of the tested antibody diluted in PBS-Tween 20 (0.05%) to a concentration of 100 ng/ml was added and allowed to interact for 60 min at R.T. by shaking at 900 rpm. Sub sequentially, these pre-incubated samples were added to the washed (3× wash) coated high-binding plate and allowed to incubate for 15 min at R.T. without shaking. The ELISA plate was then washed to remove unbound antibodies.
(§3) Finally, the ELISA plate was washed to remove unbound antibodies and 100 μl of ALP-substrate were added to each well. The plate was kept dark during incubation at R.T. until a yellow color developed. Absorbance values were measured on continuous mode at a wavelength of 405 nm every 15 minutes up to 120 minutes.

[4] = target: T1, HNE-stabilized human α-synuclein …; assay: as above
Description: as §1, §2, §3

Measured: binding result

B1: mAb38F11/2-8 (antibody, V domains shown)
VH: EVMLVESGGGLVKPGGSLKLSCAASGFTFSSYAMSWVRQTPEKRLEWVATISNGGSYTYYPDSVKGRFTISRDNAKNTLYLQMSSLRSEDTAMYYCARHSDYSGAWFAYWGQGTLVTVSA
VL: QIVLTQSPAIMSASPGEKVTISCSASSSVSYMYWYQQKPGSSPKPWIYRTSNLASGVPARFSGSGSGTSYSLTISSMEAEDAATYYCQQYHSYPYTFGGGTKLEIK
notes: Mouse monoclonal antibody from hybridoma; also called BA3
binds: [1] | [2] | [3]

B2: mAb48B11/8 (antibody, V domains shown)
VH: EVQLQESGPSLVKPSQTLSLTCSVTGDSFTSGYWNWIRKFPGNKLEYMGYIRYSGNTYYNPSLKSRISITRDTSKNQYYLQLISVTTEDTATFYCARSYYDYDRAWFAYWGQGALVTVSA
VL: DVVMTQTPLSLPVSLGDQASISCRSSQSLVHSNGNTYLHWYLQKPGQSPKLLIYKVSNRFSGVPDRFSGSGSGTDFTLKISRVEAEDLGVYFCSQSTHVPWTFGGGTKLEIK
notes: Mouse monoclonal antibody from hybridoma; also called BA4
binds: [1] | [2] | [3]

B3: mAb49/G (antibody, V domains shown)
VH: EVQLVETGGGLVQPKGSLKLSCATSGFTFNTYAMNWVRQAPGKGLEWVARIRTKSNDYATYYADSVKGRITISRDDSQSMLYLQMNNLKTEDTAMYYCVRVGYRPYAMDYWGQGTSVTVSS
VL: DVLMTQTPLSLPVSLGDQASISCRSSQNIVHSNGNTYLEWYLQKPGQSPTLLIYKVSNRFSGVPDRFSGSGSGTDFTLKISRVEAEDLGVYYCFQGSHVPLTFGAGTKLELK
notes: Mouse monoclonal antibody from hybridoma, detected with anti-mouse IgG; constant regions are not; also called BA1
binds: [2] | [4] | [3]
